Columns and labels:
GST-PsAGL9 [1] = biological target: T1, GST-PsAGL9 (Paeonia suffruticosa, UniProt V9I0Q3 1-243); experiment: competition; 10x and 20x cold mutant probe did not affect signal; Chemiluminescent EMSA Kit (Beyotime); buffer, salt, pH and temperature not stated; details: protein: recombinant; tags: GST (pGEX-4T-1)
GST-PsAGL9 [2] = biological target: T1, GST-PsAGL9; experiment: EMSA; Chemiluminescent EMSA Kit (Beyotime); buffer, salt, pH and temperature not stated; details: protein: recombinant; tags: GST (pGEX-4T-1); label: biotin
GST-PsAGL9 [3] = biological target: T1, GST-PsAGL9; experiment: EMSA; 10x and 20x cold probe weakened signal; Chemiluminescent EMSA Kit (Beyotime); buffer, salt, pH and temperature not stated; details: protein: recombinant; tags: GST (pGEX-4T-1); label: biotin; blunt

T1 sequence (V9I0Q3 entry or part of it): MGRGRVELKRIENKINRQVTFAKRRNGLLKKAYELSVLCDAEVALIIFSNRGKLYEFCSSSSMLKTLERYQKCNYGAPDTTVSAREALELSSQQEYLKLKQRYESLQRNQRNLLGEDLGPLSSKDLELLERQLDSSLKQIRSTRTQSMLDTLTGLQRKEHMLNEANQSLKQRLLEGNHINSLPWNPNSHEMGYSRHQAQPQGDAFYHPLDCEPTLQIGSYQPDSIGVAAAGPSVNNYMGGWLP

B1: PsCYCD mutant probe (cold-mP) (dsDNA)
DNA 1: TTTGGCCGACCGGGGTTAA
DNA 2: TTAACCCCGGTCGGCCAAA
B1: no binding (GST-PsAGL9 [1]).

B2: PsEBB3 CArG probe (dsDNA)
DNA 1: ATGTCCATAATTTAGGCCTA
DNA 2: TAGGCCTAAATTATGGACAT
B2: binds (GST-PsAGL9 [2]).

B3: PsCYCD CArG probe (dsDNA)
DNA 1: TTTGGCCAATTTTGGTTAA
DNA 2: TTAACCAAAATTGGCCAAA
B3: binds (GST-PsAGL9 [3]).

From PMC11997425, “MADS-domain transcription factor AGAMOUS LIKE-9 participates in the gibberellin pathway to promote bud dormancy release of tree peony”
